Test results published in publication PMC4755848 (Proteins, 2016).

Experiments:
[1] = target: BaiE (bile acid 7α-dehydratase) from Clostridium hylemonae DSM15053 (Clostridium hylemonae DSM15053); test: SEC
[2] = target: BaiE (bile acid 7α-dehydratase) from Clostridium hiranonis DSM13275 (Clostridium hiranonis DSM13275); test: SEC
[3] = target: BaiE (bile acid 7α-dehydratase) from Clostridium scindens ATCC35704 (Clostridium scindens ATCC35704) (UniProt P19412); test: SEC
[4] = substrate: C[C@H](CCC(=O)O)[C@H]1CC[C@H]2[C@@H]3[C@H](O)CC4=CC(=O)CC[C@]4(C)[C@H]3CC[C@]12C; test: purified protein; assay type: biochemical, Peptacetobacter hiranonis; conditions: 20 mM Tris-HCl pH 7.3, 25 °C
[5] = substrate: C[C@H](CCC(=O)SCCNC(=O)CCNC(=O)[C@H](O)C(C)(C)COP(=O)(O)OP(=O)(O)OC[C@H]1O[C@@H](n2cnc3c(N)ncnc32)[C@H](O)[C@@H]1OP(=O)(O)O)[C@H]1CC[C@H]2[C@@H]3[C@H](O)CC4=CC(=O)CC[C@]4(C)[C@H]3CC[C@]12C; test: purified protein; assay type: biochemical, Peptacetobacter hiranonis; conditions: 20 mM Tris-HCl pH 7.3, 25 °C
[6] = substrate: C[C@H](CCC(=O)O)[C@H]1CC[C@H]2[C@@H]3[C@H](O)CC4=CC(=O)CC[C@]4(C)[C@H]3CC[C@]12C; test: purified protein; assay type: biochemical, [Clostridium] hylemonae; conditions: 20 mM Tris-HCl pH 7.3, 25 °C
[7] = substrate: C[C@H](CCC(=O)SCCNC(=O)CCNC(=O)[C@H](O)C(C)(C)COP(=O)(O)OP(=O)(O)OC[C@H]1O[C@@H](n2cnc3c(N)ncnc32)[C@H](O)[C@@H]1OP(=O)(O)O)[C@H]1CC[C@H]2[C@@H]3[C@H](O)CC4=CC(=O)CC[C@]4(C)[C@H]3CC[C@]12C; test: purified protein; assay type: biochemical, [Clostridium] hylemonae; conditions: 20 mM Tris-HCl pH 7.3, 25 °C
[8] = substrate: C[C@H](CCC(=O)O)[C@H]1CC[C@H]2[C@@H]3[C@H](O)CC4=CC(=O)CC[C@]4(C)[C@H]3CC[C@]12C; test: purified protein; assay type: biochemical, [Clostridium] scindens; conditions: 20 mM Tris-HCl pH 7.3, 25 °C
[9] = substrate: C[C@H](CCC(=O)SCCNC(=O)CCNC(=O)[C@H](O)C(C)(C)COP(=O)(O)OP(=O)(O)OC[C@H]1O[C@@H](n2cnc3c(N)ncnc32)[C@H](O)[C@@H]1OP(=O)(O)O)[C@H]1CC[C@H]2[C@@H]3[C@H](O)CC4=CC(=O)CC[C@]4(C)[C@H]3CC[C@]12C; test: purified protein; assay type: biochemical, [Clostridium] scindens; conditions: 20 mM Tris-HCl pH 7.3, 25 °C
[10] = target: the molecule itself; test: SEC

Molecule: BaiE (bile acid 7α-dehydratase) from Clostridium hylemonae DSM15053 (enzyme)
- stoichiometry N [1]: 3

Molecule: BaiE (bile acid 7α-dehydratase) from Clostridium hiranonis DSM13275 (enzyme)
- stoichiometry N [2]: 3

Molecule: BaiE (bile acid 7α-dehydratase) from Clostridium scindens ATCC35704 (from UniProt P19412 1-166) (enzyme)
- stoichiometry N [3]: 3

B1: BaiE_13275 (Peptacetobacter hiranonis DSM 13275) (protein)
chain: MTLEARIEALEKEIQRLNDIEAIKQLKAKYFRCLDGKLWDELETTLSPNIETSYSDGKLVFHSPKEVTEYLAAAMPKEEISMHMGHTPEITIDSENTATGRWYLEDNLIFTDGKYKNVGINGGAFYTDKYEKIDGQWYIKETGYVRIFEEHFMRDPKIHITSNMHKEK
- Km [4]: 25.0 (1.8) μM
- kcat [4]: 4.4 s⁻¹
- kcat/Km [4]: 200000 M⁻¹ s⁻¹
- Km [5]: 208.0 (40.0) μM
- kcat [5]: 22.2 s⁻¹
- kcat/Km [5]: 100000 M⁻¹ s⁻¹

B2: BaiE_15053 ([Clostridium] hylemonae DSM 15053) (protein)
chain: MSIEERLEALEKEIQKMKDIEEIKKLKGQYFRCLDGKFWDELETTLSPNIVTSYSNGKLVFHGPKEVTDYFKKAMPREEISMHMGHTPEITIDSETTATGRWYLEDKLIFTEESKYAGSGVNGGAFYTDKYEKVDGKWYILETGYLRVYEEHFMRDPKIKITMNMHKTK
- Km [6]: 21.0 (2.0) μM
- kcat [6]: 18.6 s⁻¹
- kcat/Km [6]: 900000 M⁻¹ s⁻¹
- Km [7]: 11.4 (1.9) μM
- kcat [7]: 12.6 s⁻¹
- kcat/Km [7]: 1.1e+06 M⁻¹ s⁻¹

B3: BaiE_35704 ([Clostridium] scindens ATCC 35704) (protein)
chain: MTLEERVEALEKELQKMKDIEAIKELKGKYFRCLDGKMWDELETTLSPNIVTSYSNGKLVFHSPKEVTDYLKSTMPKEEISMHMGHTPEITIDSETTATGRWYLEDKLIFTDGKYKDVGINGGAFYTDKYEKIEGQWYILETGYVRIYEEHFMRDPKIHITMNMHK
- Km [8]: 11.0 (1.9) μM
- kcat [8]: 18 s⁻¹
- kcat/Km [8]: 1.6e+06 M⁻¹ s⁻¹
- Km [9]: 1.2 (0.2) μM
- kcat [9]: 15 s⁻¹
- kcat/Km [9]: 1.25e+07 M⁻¹ s⁻¹

B4: BaiE (bile acid 7α-dehydratase) from Clostridium scindens VPI12708 (enzyme, UniProt P19412 1-166, looked up)
chain: MTLEERVEALEKELQEMKDIEAIKELKGKYFRCLDGKMWDELETTLSPNIVTSYSNGKLVFHSPKEVTDYLKSSMPKEEISMHMGHTPEITIDSETTATGRWYLEDRLIFTDGKYKDVGINGGAFYTDKYEKIDGQWYILETGYVRIYEEHFMRDPKIHITMNMHK
- stoichiometry N [10]: 3
- Km [8]: 9.9 (2.1) μM
- kcat [8]: 24 s⁻¹
- kcat/Km [8]: 2.4e+06 M⁻¹ s⁻¹
- Km [9]: 4.0 (0.56) μM
- kcat [9]: 98 s⁻¹
- kcat/Km [9]: 2.45e+07 M⁻¹ s⁻¹
